Tested on: LN-PSA cells
Test: MTT assay with PSA proteinase inhibitor, LN-PSA cells
Type: cell-based, human
Conditions: 1000 ng/ml, vs vehicle 1x PBS
Method: Cells of stable transfected LNCaP, CWR22rv1, PC-3 and Du145 sublines were seeded in 24-well tissue culture plates at a density of 5000 cells/well in media containing 10% CD-FBS with 1 nM DHT. At the indicated time points, the medium was replenished and determined cell proliferation by MTT [3-(4,5-dimethylthiazol-2-yl)-2,5-diphenyltetrazolium bromide assay. Serum-free medium containing MTT (0.5 mg/ml, Sigma) was added into each well and after 4 h incubation at 37° C., cellular formazan product was dissolved with acidic isopropanol, and the absorbance at OD595 was measured by spectrophotometry (Beckman Du640B). 6 replicate wells were used for each sample at each time point. a-Antichymotrypsin (MP Biomedicals, Inc) at a concentration of 1000 ng/ml was used in the MTT assay as a PSA proteinase inhibitor to treat the LNCaP cell sublines. LN-PSA, LN-siPSA cells were grown in 100-mm dishes. The cells were digested by trypsin-EDTA, harvested as many as 1×10^6 cells, and fixed them in 70% ethanol at 4° C. After 12 h, cells were centrifuged (1000 g, 7 min, 4° C.), and resuspended in PBS containing 0.05 mg/ml RNase A (Sigma), and then incubated at room temperature for 30min. After washing, the cells were stained with […] propidium iodide, filtered through a […], and analyzed 10,000 cells by flow cytometry (FACSCalibur, BD Company) with MODFIT software (Verity Software House, Inc).

B1: α1-antichymotrypsin: PSA protease inhibitor (MP Biomedicals), used at 1000 ng/ml (protein, UniProt P01011 24-423, looked up)
Alpha-1-antichymotrypsin: HPNSPLDEENLTQENQDRGTHVDLGLASANVDFAFSLYKQLVLKAPDKNVIFSPLSISTALAFLSLGAHNTTLTEILKGLKFNLTETSEAEIHQSFQHLLRTLNQSSDELQLSMGNAMFVKEQLSLLDRFTEDAKRLYGSEAFATDFQDSAAAKKLINDYVKNGTRGKITDLIKDLDSQTMMVLVNYIFFKAKWEMPFDPQDTHQSRFYLSKKKWVMVPMMSLHHLTIPYFRDEELSCTVVELKYTGNASALFILPDQDKMEEVEAMLLPETLKRWRDSLEFREIGELYLPKFSISRDYNLNDILLQLGIEEAFTSKADLSGITGARNLAVSQVVHKAVLDVFEEGTEASAATAVKITLLSALVETRTIVRFNRPFLMIIVPTDTQNIFFMSKVTNPKQA
Q: B1 was tested. Which “PSA-induced cell growth (MTT)” value did it give?
A: Its value is “limited influence”.

Q: What about the “PSA-induced cell growth (MTT)” value (listed as ACT) of the same molecule?
A: Its value is “not significantly changed”.
